This is an account of results in patent US20150203573A1 (MEDICAL AND BIOLOGICAL LABORATORIES, published 2015).

The target in assay [1] is AP-MK, recombinant protein having alkaline phosphatase (AP) fused to the N-terminal of aa23-121 of MK (human) (UniProt P21741). As to the kind of experiment: AP-MK binding inhibition assay on TNB1 cells; antibody 10 ug/mL.
Target sequence in this assay (P21741 23-143, form in doubt): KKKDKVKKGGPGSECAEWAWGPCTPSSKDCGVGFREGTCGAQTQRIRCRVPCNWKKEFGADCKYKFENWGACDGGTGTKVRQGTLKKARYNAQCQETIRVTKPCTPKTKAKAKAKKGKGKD
For assay [2], the target named is T1, full length purified peptide of pleiotrophin (PEPTIDE INSTITUTE, INC.: 4335-v) (UniProt P21246 33-168, limits assumed).
T1 construct: mature; Bought product; also called PTN
T1 sequence (looked up): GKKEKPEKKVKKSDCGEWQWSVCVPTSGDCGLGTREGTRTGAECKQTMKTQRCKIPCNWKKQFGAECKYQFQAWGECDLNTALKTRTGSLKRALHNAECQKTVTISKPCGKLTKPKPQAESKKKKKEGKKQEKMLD
As to the kind of experiment: ELISA on full length purified peptide of pleiotrophin. (In general: ELISA stands for enzyme-linked immunosorbent assay.)

Assay [3] addresses AP-MK, recombinant protein having alkaline phosphatase (AP) fused to the N-terminal of aa23-121 of MK (human) (UniProt P21741). Description: AP-MK binding inhibition assay on TNB1 cells; AP-MK 0.6 U/ml, antibody 90 ug/mL.
For assay [4], the target named is T2, mutant MK recombinant protein MK-R81Q (human, UniProt P21741 23-143, R81Q).
T2 construct: range 23-143; Made from MKver10-pQCxmhIPG, secreted from 293T cells; not shown: linker and tag from vector pQCxmhIPG
T2 sequence (looked up): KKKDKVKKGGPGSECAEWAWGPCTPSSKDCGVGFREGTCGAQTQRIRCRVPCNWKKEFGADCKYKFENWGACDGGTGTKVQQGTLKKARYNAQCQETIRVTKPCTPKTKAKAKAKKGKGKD
Description: ELISA, plates coated with wild type or mutant MK, antibody serially diluted from 5 ug/mL. As for the experimental part:
(§1) Hybridomas producing anti-MK antibodies were selected by enzyme-linked immunosorbent assay (ELISA). The assay used the aforementioned recombinant human MK (MKver10) which had been dispensed in a 96-well ELISA plate (nunc) in an amount of 0.5 μg/mL (50 μL/well) and left to stand for 2 hours at room temperature or overnight at […] for adsorption. After removal of the resulting solution, 1% BSA (Nacalai: 01863-35)-5% Sucrose (WAKO)-PBS was added in an amount of 150 μL/well, and the system was allowed to stand for 2 hours at room temperature to block the remaining active groups. After standing of the system, the resulting solution was removed, and the hybridoma culture supernatant (50 μL/well) was dispensed as a primary antibody, whereafter the system was allowed to stand for 1 hour. After the plate was washed with 0.05% Tween 20-PBS, HRP-labeled goat anti-mouse IgG (MBL: 330) diluted 1:10000 was added as a secondary antibody in an amount of 50 μL/well, and the system was allowed to stand for 1 hour at room temperature. After the plate was washed with 0.05% Tween 20-PBS, a color developing solution (5 mM sodium citrate, 0.8 mM 3,3′,5,5′-tetramethylbenzidine-2HCl, 10% N,N-dimethylformamide, 0.625% polyethylene glycol 4000, 5 mM citric acid monohydrate, 5 mM H₂O₂) was added in an amount of 50 μL/well, and the system was allowed to stand for 20 minutes at room temperature to develop a color. 1M phosphoric acid was added in an amount of 50 μL/well to terminate color development, and then the absorbance at 450 nm was measured using a plate reader (Thermo Fisher Scientific).
(§2) The reactivities of the resulting antibodies with the mutant MKs were confirmed by the same enzyme-linked immunosorbent assay (ELISA) as described above. The assays used plates having wild type human MK (MKver10) or the above-mentioned mutant MK (MK-W69A, MK-K79Q, MK-R81Q and MK-K102Q) adsorbed thereto. The anti-MK antibody at a maximum concentration of 5 μg/mL was serially diluted with PBS, and used as a primary antibody. As examples of the antibodies recognizing the N-terminal side or the C-terminal side of midkine, but showing no neutralizing activity, BF106 and FB74 were also evaluated similarly.

In assay [5] the target is T3, mutant MK recombinant protein MK-K102Q (human, UniProt P21741 23-143, K102Q).
T3 construct: range 23-143; Made from MKver10-pQCxmhIPG, secreted from 293T cells; not shown: linker and tag from vector pQCxmhIPG
T3 sequence (looked up): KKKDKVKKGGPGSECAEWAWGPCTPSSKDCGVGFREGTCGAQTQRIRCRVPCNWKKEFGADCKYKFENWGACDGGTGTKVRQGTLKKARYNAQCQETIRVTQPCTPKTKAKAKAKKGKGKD
Described as above. How it is done: as §1, §2

The target in assay [6] is T4, mutant MK recombinant protein MK-W69A (human, UniProt P21741 23-143, W69A).
T4 construct: range 23-143; Made from MKver10-pQCxmhIPG, secreted from 293T cells; not shown: linker and tag from vector pQCxmhIPG
T4 sequence (looked up): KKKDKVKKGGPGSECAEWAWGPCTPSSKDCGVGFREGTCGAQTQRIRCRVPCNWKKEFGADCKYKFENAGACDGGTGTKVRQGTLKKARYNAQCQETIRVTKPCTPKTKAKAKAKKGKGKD
The assay is described as above. How it is done:
as §1, §2

The target of assay [7] is T5, mutant MK recombinant protein MK-K79Q (human, UniProt P21741 23-143, K79Q).
T5 construct: range 23-143; Made from MKver10-pQCxmhIPG, secreted from 293T cells; not shown: linker and tag from vector pQCxmhIPG
T5 sequence (looked up): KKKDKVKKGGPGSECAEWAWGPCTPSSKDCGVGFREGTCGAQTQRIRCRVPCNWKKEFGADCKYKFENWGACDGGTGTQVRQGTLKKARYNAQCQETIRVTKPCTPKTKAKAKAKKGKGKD
Described as above. How it is done:
as §1, §2

B1: hFB54-matu024 affinity-improved antibody (IgG) (antibody, V domains shown)
VH: EVQLVESGGGLVKPGGYLRLSCAASGFTFSSYAMSWVRQAPGKGLDWVATISSGGSYTYYPDSVKGRFTISRDNAKNSLYLQMNSLTDDDTAVYFCARHNYRYGEYYYAMDYWGQGTLVTVSS
VL: ETTVTQSPSSLSASVGDRVTIRCITSIDIDDEMNWYQQKSGKGPKLLISEGNTLRPGVPSRFSSSGYGTDFTLTISSLQPEDFATYYCLQSDNLPYTFGQGTKLEIK
With B1, the relative AP activity (% of wells with AP-MK alone) in assay [1] is 22.7%.

B2: hFB54-matu062 affinity-improved antibody (IgG) (antibody, V domains shown)
VH: EVQLVESGGGLVKPGGYLRLSCAASGFTFSSYAMSWVRQAPGKGLDWVATISSGGSYTYYPDSVKGRFTISRDNAENTLYLQMNSLTNDDTAVYFCARHNYRYDEYYYAMDYWGQGTLVTVSS
VL: ETTVTQSPSSLSAFVGGRVAIRCITNIDIDDEMNWYQQKPGKGPKLLISEGNTLRPGVPSRFSSSGYGTDFTLTISSLQPEDFATYYCMQSDNLPYTFGQGTKLEIK
On to B2, for which the relative AP activity (% of wells with AP-MK alone) in assay [1] amounted to 28.3%.

B3: hFB54-matu039 affinity-improved antibody (IgG) (antibody, V domains shown)
VH: EVRLVESGGGLVKPGGYLRLSCAASGFTFSSYAMSWVRQAPGKGLDWVATISSGGSYTYYPDSVKERFTISRDNAKNSLYLQMNSLTDDDTAVYFCARHNYRYDEYYYGMDYWGQGTLVTVSS
VL: ETTVTQSPSSLSASVGDRVTIRCKTSIDIDDEMNWYQQKPGKGPKLLISEGNTLRPGVPSRFSSSGYGTDFTLTISSLQPEDFATYYCLQSDNLPYTFGQGTKLGIK
As for B3, the relative AP activity (% of wells with AP-MK alone) in assay [1] is 30.1%.

B4: humanized FB54 antibody hFB54 (FB54-rHa/FB54-rKc) (antibody, human IgG1, V domains shown)
VH: EVQLVESGGGLVKPGGYLRLSCAASGFTFSSYAMSWVRQAPGKGLDWVATISSGGSYTYYPDSVKGRFTISRDNAKNSLYLQMNSLTDDDTAVYFCARHNYRYDEYYYAMDYWGQGTLVTVSS
VL: ETTVTQSPSSLSASVGDRVTIRCITSTDIDDEMNWYQQKPGKGPKLLISEGNTLRPGVPSRFSSSGYGTDFTLTISSLQPEDFATYYCLQSDNLPYTFGQGTKLEIK
Take B4: the relative AP activity (% of wells with AP-MK alone) in assay [1] was 81.8%.

B5: hFB54-matu014 affinity-improved antibody (IgG) (antibody, V domains shown)
VH: EVQLVESGGGLVKPGGYLRLSCAASGFTFSSYAMSWVRQTPGKGLDWVATISSGGSYTYYPDSVKGRFTISRDNVKNSLYLQMNSLTDDDTAVYFCARHNYRYDEYYYAMDYWGQGTLVTVSS
VL: ETTVTQSPSSLSASVGDRVTIRCITNIDIDDEMNWYQQKPGKGPKLLISEGNTLRPGVPSRFSSSGYGTDFTLTISSLQPEDFATYYCLQSDNLPYTFGRGTKLEIK
As for B5, the relative AP activity (% of wells with AP-MK alone) in assay [1] worked out at 25.6%.

B6: hFB54-matu054 affinity-improved antibody (IgG) (antibody, V domains shown)
VH: EVQLVESGGGLVKPGGYLRLSCAASGFTFSSYAMSWVRQAPGKGLDWVATISSGGSYTYYPDSVKGRFTISRDNTKNTLYLQMNSLTDDDTAVYFCARHNYRYDEYYYAMDYWGQGTLVTVSS
VL: ETTVTQSPSSLSASVGDRVTIRCITSIDIEDEMNWYQQKPGKGPKLLISEGNTLRPGVPSRFSSSGYGTDFTLTISSLQPEDFATYYCLQSDNLPYTFGQGTKLEIK
For B6, the relative AP activity (% of wells with AP-MK alone) in assay [1] is 33.5%.

B7: hFB54-matu072 affinity-improved antibody (IgG) (antibody, V domains shown)
VH: EVQLVESGGGLVKPGGYLRLSCAASGFTFSSYAMSWVRQAPGKGLDWVATISSGGSYTYYPDNVKGRFTISRDNAKNSLYLQMNSLTDDDTAVYFCARHNYRYDEYYHAMDYWGQGTLVTVSS
VL: ETTVTQSPSSLFASVGDKVTIRCITSIDIDDEMNWYQQKPGKGPKLLISEGNTLRPGVPSRFSSSGYGTDFTLTISSLQPEDFATYYCLQSDNLPYTFGQGTKLEIK
As for B7, in assay [1], the relative AP activity (% of wells with AP-MK alone) stood at 33%.

B8: hFB54-matu020 affinity-improved antibody (IgG) (antibody, V domains shown)
VH: EVQLVESGGGLVKPGGYQRLSCAASGFTFSSYAMSWVRQAPGKGLDWVATISSGGSYTYYPDSVKGRFTISRDNAKNSLYLQMNNLTDDDTAVYFCARHNYRYDEYYHAMDYWGQGTLVTVSS
VL: ETTVTQSPSSLSASVGDRVTIRCITSIDIDDEMNWYQQKPGKGPKLLISEGNTLRPGVPSRFSSSGYGTDFTLTISSLQPEDFATYYCLQSDNLPYTFGQGTKLEIK
Regarding B8, the relative AP activity (% of wells with AP-MK alone) in assay [1] was found to be 26.8%.

B9: anti-human midkine mouse monoclonal antibody FB54 (antibody, V domains shown)
VH: EVMLVESGGGLVKPGGSLKLSCAASGFTFSSYAMSWVRQTPEKRLEWVATISSGGSYTYYPDSVKGRFTISRDNAKNTLYLQMSSLRSEDTAMYFCARHNYRYDEYYYAMDYWGQGTSVTVSS
VL: ETTVTQSPTSLSMAIGEKVTIRCITSTDIDDEMNWYQQKPGEPPKLLISEGNTLRPGVPSRFSSSGYGTDFVFTIENMLSEDVADYYCLQSDNLPYTFGGGTKLEIK
notes: Mouse hybridoma IgG; variable genes were amplified with mouse IgG1 CH1 and kappa constant primers; also called mFB54; mouse FB54 antibody
For B9, the binding result in assay [2] was “no binding”; in assay [4], “binds”; in assay [5], “binds”; in assay [6], “binds”; in assay [7] it was “binds”. Also, the relative AP activity (% of wells with AP-MK alone) in assay [3] was 29.5%.

B10: mFB54-matu089 affinity-improved antibody (IgG) (antibody, V domains shown)
VH: EVMLVESGGGLVEPGGSLKLSCTVSGFTFSSYAMSWVRQTPEKRLEWVATISSGGSYTYYPDSVKGRFTISRDNAKNTLYLQMSSLRSEDTAMYFCARHNYRYDEYYYAMDYWGHGTSVTVSS
VL: ETTVTQSPTSLSMAIGEKVTIRCITSIDIDDEMNWYQQKPGEPPKLLISEGNTLRPGVPSRFSSSGYGTDFVFTIENVLSEDVADYYCLQSDNLPYTFGGGTKLEIK
As to B10, the relative AP activity (% of wells with AP-MK alone) in assay [1] is 20%.

B11: mFB54-matu002 affinity-improved antibody (IgG) (antibody, V domains shown)
VH: EVMLVESGGGLVKPGGSLKLSCAASGFTFSSYAMSWVRQTPEKRLEWVATISSGGSYTYYPDSVKGRFTISRDNAKNTLYLQMSSLRSEDTAMYFCARHNYRYDEYYYAMDYWGQGTSVTVSS
VL: ETTVTQSPTSLSMAIGEKVTIRCTTSIDIDDEMNWYQQMPGEPPKLLISEGNTLRPGVPSRFSSSGYGTDFVFTIENMLSEDVADYYCLQSDNLPYTFGGGTKLEIK
Consider B11, for which the relative AP activity (% of wells with AP-MK alone) in assay [1] turned out to be 18.9%.
